Assay results published in patent publication US20200190192A1 (SUTRO BIOPHARMA, published 2020).

T1: cynomolgus Tim-3 expressed on CHO cells (cynomolgus monkey)
T1 construct: also called cTim-3; Cyno Tim-3 (CHO)
T1 chain: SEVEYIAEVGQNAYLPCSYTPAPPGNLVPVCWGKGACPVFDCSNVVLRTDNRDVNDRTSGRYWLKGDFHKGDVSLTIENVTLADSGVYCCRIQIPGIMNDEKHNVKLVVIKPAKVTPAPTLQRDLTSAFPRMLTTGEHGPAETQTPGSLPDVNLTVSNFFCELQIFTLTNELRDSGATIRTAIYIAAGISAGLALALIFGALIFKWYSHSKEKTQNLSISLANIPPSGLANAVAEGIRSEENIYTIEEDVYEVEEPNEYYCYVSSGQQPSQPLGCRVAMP


Columns and labels:
[1] = molecular target: T2, recombinant human Tim-3-Fc (R&D Systems, 2365-TM) (human, UniProt Q8TDQ0 22-202, biotinylated in the Galectin-9 competition ELISA (sites not given)); experiment: SPR Biacore, human Tim-3 Fc; KD estimated;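 on koff: antibodies captured on an anti-FLAG sensor surface, Tim-3-Fc flowed over as analyte at 25 °C in HBS-EP+ buffer, rates fit with a 1:1 Langmuir model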
T2 construct: Bought protein; also called huTim-3-Fc; biotinylated Tim-3-Fc; not shown: Fc of the bought fusion protein

[2] = molecular target: T1, cynomolgus Tim-3 expressed on CHO cells; experiment: flow cytometry, CHO-cyno Tim-3 cells
[3] = molecular target: T3, human Tim-3 expressed on the cell surface (human, UniProt Q8TDQ0 22-301); experiment: flow cytometry, activated human CD4+ T cells
T3 construct: also called hTim-3; Human Tim-3 (CHO)

[4] = molecular target: T2, recombinant human Tim-3-Fc (R&D …); experiment: SPR Biacore, human Tim-3 Fc
[5] = molecular target: T3, human Tim-3 expressed on the cell …; experiment: flow cytometry, CHO-human Tim-3 cells;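 further: antibodies bound on ice for 60 min, detected by PE anti-human IgG Fc secondary, mean fluorescence intensity fit to one-site specific binding with Hill slope, parental CHO cells as nonspecific control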

| Binder | Kd [1] [nM] | Kd [2] [nM] | Kd [3] [nM] | koff [4] [s⁻¹] | Kd [5] [nM] |
| --- | --- | --- | --- | --- | --- |
| h22E11-VK3-11 × h22E11-VH3-23 (antibody, V domains shown, Humanized m22E11) VH: EVQLLESGGGLVQPGGSLRLSCAVSGFSLTSYGVHWVRQAPGKGLEWLVVIWSDGSTTYNDSVKGRFTISKDNSKNTVYLQMNSLRAEDTAVYYCARQGGYRYDDAMDYWGQGTLVTVSS VL: EIVLTQSPATLSLSPGERATLSCKASQSVDYDGNSYVNWYQQKPGQAPRLLIYAASNLESGIPARFSGSGSGTDFTLTISSLEPEDFAVYYCQQSNEDPYTFGQGTKVEIK | 5.3 | 6.9 | 0.9 | 0.000934 | 0.7 |
| h22E11-VK3-11 × h22E11-VH5-51 (antibody, V domains shown, Humanized m22E11) VH: EVQLVQSGAEVKKPGESLKISCKVSGFSLTSYGVHWVRQMPGKGLEWLVVIWSDGSTTYNPSFQGQVTISKDKSISTVYLQWSSLKASDTAMYYCARQGGYRYDDAMDYWGQGTLVTVSS VL: EIVLTQSPATLSLSPGERATLSCKASQSVDYDGNSYVNWYQQKPGQAPRLLIYAASNLESGIPARFSGSGSGTDFTLTISSLEPEDFAVYYCQQSNEDPYTFGQGTKVEIK | 4.3 | 2.7 | 0.6 | 0.000875 | 0.8 |
| h22E11-VK3-11 × h22E11-VH1-69 (antibody, V domains shown, Humanized m22E11) VH: QVQLVQSGAEVKKPGSSVKVSCKVSGFSLTSYGVHWVRQAPGQGLEWLVVIWSDGSTTYNQKFQGRVTITKDESTSTVYMELSSLRSEDTAVYYCARQGGYRYDDAMDYWGQGTLVTVSS VL: EIVLTQSPATLSLSPGERATLSCKASQSVDYDGNSYVNWYQQKPGQAPRLLIYAASNLESGIPARFSGSGSGTDFTLTISSLEPEDFAVYYCQQSNEDPYTFGQGTKVEIK | 4.9 | 2.8 | 4 | 0.000867 | 1 |
| h22E11-VK1-39 × h22E11-VH3-23 (antibody, V domains shown, Humanized m22E11) VH: EVQLLESGGGLVQPGGSLRLSCAVSGFSLTSYGVHWVRQAPGKGLEWLVVIWSDGSTTYNDSVKGRFTISKDNSKNTVYLQMNSLRAEDTAVYYCARQGGYRYDDAMDYWGQGTLVTVSS VL: DIQLTQSPSSLSASVGDRVTITCKASQSVDYDGNSYVNWYQQKPGKAPKLLIYAASNLESGVPSRFSGSGSGTDFTLTISSLQPEDFATYYCQQSNEDPYTFGQGTKVEIK | 5.6 | 4.5 | 1.1 | 0.00094 | 0.5 |
| h22E11-VK1-39 × h22E11-VH4-30-4 (antibody, V domains shown, Humanized m22E11) VH: QVQLQESGPGLVKPSQTLSLTCTVSGFSLTSYGVHWIRQPPGKGLEWLVVIWSDGSTTYNPSLKSRVTISKDTSKNQVSLKLSSVTAADTAVYYCARQGGYRYDDAMDYWGQGTLVTVSS VL: DIQLTQSPSSLSASVGDRVTITCKASQSVDYDGNSYVNWYQQKPGKAPKLLIYAASNLESGVPSRFSGSGSGTDFTLTISSLQPEDFATYYCQQSNEDPYTFGQGTKVEIK | 9.1 | 5.5 | – | 0.00126 | 0.7 |
| h22E11-VK1-39 × h22E11-5-IgG-HC (antibody, V domains shown, Humanized m22E11) VH: EVQLVESGGGLVQPGGSLRLSCAVSGFSLTSYGVHWVRQAPGKGLEWLVVIWSDGSTTYNSALKSRFTISKDNAKNSVYLQMNSLRAEDTAVYYCARQGGYRYDDAMDYWGQGTLVTVSS VL: DIQLTQSPSSLSASVGDRVTITCKASQSVDYDGNSYVNWYQQKPGKAPKLLIYAASNLESGVPSRFSGSGSGTDFTLTISSLQPEDFATYYCQQSNEDPYTFGQGTKVEIK | 6.2 | 4.7 | 2.4 | 0.00102 | 0.6 |
| h22E11-VK4-1 × h22E11-VH4-30-4 (antibody, V domains shown, Humanized m22E11) VH: QVQLQESGPGLVKPSQTLSLTCTVSGFSLTSYGVHWIRQPPGKGLEWLVVIWSDGSTTYNPSLKSRVTISKDTSKNQVSLKLSSVTAADTAVYYCARQGGYRYDDAMDYWGQGTLVTVSS VL: DIVLTQSPDSLAVSLGERATINCKASQSVDYDGNSYVNWYQQKPGQPPKLLIYAASNLESGVPDRFSGSGSGTDFTLTISSLQAEDVAVYYCQQSNEDPYTFGQGTKVEIK | 8.1 | 5 | 5.7 | 0.00119 | 1.1 |
| h22E11-VK3-11 × h22E11-VH4-30-4 (antibody, V domains shown, Humanized m22E11) VH: QVQLQESGPGLVKPSQTLSLTCTVSGFSLTSYGVHWIRQPPGKGLEWLVVIWSDGSTTYNPSLKSRVTISKDTSKNQVSLKLSSVTAADTAVYYCARQGGYRYDDAMDYWGQGTLVTVSS VL: EIVLTQSPATLSLSPGERATLSCKASQSVDYDGNSYVNWYQQKPGQAPRLLIYAASNLESGIPARFSGSGSGTDFTLTISSLEPEDFAVYYCQQSNEDPYTFGQGTKVEIK | 7.2 | 4.5 | 7.1 | 0.00107 | 1 |
| h22E11-5-IgG-LC × h22E11-VH4-30-4 (antibody, V domains shown, Humanized m22E11) VH: QVQLQESGPGLVKPSQTLSLTCTVSGFSLTSYGVHWIRQPPGKGLEWLVVIWSDGSTTYNPSLKSRVTISKDTSKNQVSLKLSSVTAADTAVYYCARQGGYRYDDAMDYWGQGTLVTVSS VL: EIVLTQSPGTLSLSPGERATLSCKASQSVDYDGNSYVAWYQQKPGQAPRLLIYAASNLESGIPDRFSGSGSGTDFTLTISRLEPEDFAVYYCQQSNEDPYTFGQGTKVEIK | 7.6 | – | – | 0.00117 | 3.7 |

Now from value to binder:

| Kd [1] [nM] | Kd [2] [nM] | Kd [3] [nM] | koff [4] [s⁻¹] | Kd [5] [nM] | Binder |
| --- | --- | --- | --- | --- | --- |
| 5 | – | – | 0.0011 | – | h22E11-5-IgG-LC × h22E11-VH5-51 (antibody, V domains shown, Humanized m22E11) VH: EVQLVQSGAEVKKPGESLKISCKVSGFSLTSYGVHWVRQMPGKGLEWLVVIWSDGSTTYNPSFQGQVTISKDKSISTVYLQWSSLKASDTAMYYCARQGGYRYDDAMDYWGQGTLVTVSS VL: EIVLTQSPGTLSLSPGERATLSCKASQSVDYDGNSYVAWYQQKPGQAPRLLIYAASNLESGIPDRFSGSGSGTDFTLTISRLEPEDFAVYYCQQSNEDPYTFGQGTKVEIK |
| 5.3 | 13.2 | 1.2 | 0.000895 | 0.8 | h22E11-5-IgG-LC × h22E11-VH3-23 (antibody, V domains shown, Humanized m22E11) VH: EVQLLESGGGLVQPGGSLRLSCAVSGFSLTSYGVHWVRQAPGKGLEWLVVIWSDGSTTYNDSVKGRFTISKDNSKNTVYLQMNSLRAEDTAVYYCARQGGYRYDDAMDYWGQGTLVTVSS VL: EIVLTQSPGTLSLSPGERATLSCKASQSVDYDGNSYVAWYQQKPGQAPRLLIYAASNLESGIPDRFSGSGSGTDFTLTISRLEPEDFAVYYCQQSNEDPYTFGQGTKVEIK |
| 6 | 1.7 | 2.6 | 0.00094 | 0.6 | h22E11-VK1-39 × h22E11-VH1-69 (antibody, V domains shown, Humanized m22E11) VH: QVQLVQSGAEVKKPGSSVKVSCKVSGFSLTSYGVHWVRQAPGQGLEWLVVIWSDGSTTYNQKFQGRVTITKDESTSTVYMELSSLRSEDTAVYYCARQGGYRYDDAMDYWGQGTLVTVSS VL: DIQLTQSPSSLSASVGDRVTITCKASQSVDYDGNSYVNWYQQKPGKAPKLLIYAASNLESGVPSRFSGSGSGTDFTLTISSLQPEDFATYYCQQSNEDPYTFGQGTKVEIK |
| 5.3 | 2.1 | 0.9 | 0.000947 | 0.4 | h22E11-VK1-39 × h22E11-VH5-51 (antibody, V domains shown, Humanized m22E11) VH: EVQLVQSGAEVKKPGESLKISCKVSGFSLTSYGVHWVRQMPGKGLEWLVVIWSDGSTTYNPSFQGQVTISKDKSISTVYLQWSSLKASDTAMYYCARQGGYRYDDAMDYWGQGTLVTVSS VL: DIQLTQSPSSLSASVGDRVTITCKASQSVDYDGNSYVNWYQQKPGKAPKLLIYAASNLESGVPSRFSGSGSGTDFTLTISSLQPEDFATYYCQQSNEDPYTFGQGTKVEIK |
| 4.9 | 3 | 1.6 | 0.000991 | 0.9 | h22E11-5-IgG-LC × h22E11-VH1-69 (antibody, V domains shown, Humanized m22E11) VH: QVQLVQSGAEVKKPGSSVKVSCKVSGFSLTSYGVHWVRQAPGQGLEWLVVIWSDGSTTYNQKFQGRVTITKDESTSTVYMELSSLRSEDTAVYYCARQGGYRYDDAMDYWGQGTLVTVSS VL: EIVLTQSPGTLSLSPGERATLSCKASQSVDYDGNSYVAWYQQKPGQAPRLLIYAASNLESGIPDRFSGSGSGTDFTLTISRLEPEDFAVYYCQQSNEDPYTFGQGTKVEIK |
| 4.8 | 1.9 | 0.6 | 0.000881 | 0.8 | h22E11-VK4-1 × h22E11-VH5-51 (antibody, V domains shown, Humanized m22E11) VH: EVQLVQSGAEVKKPGESLKISCKVSGFSLTSYGVHWVRQMPGKGLEWLVVIWSDGSTTYNPSFQGQVTISKDKSISTVYLQWSSLKASDTAMYYCARQGGYRYDDAMDYWGQGTLVTVSS VL: DIVLTQSPDSLAVSLGERATINCKASQSVDYDGNSYVNWYQQKPGQPPKLLIYAASNLESGVPDRFSGSGSGTDFTLTISSLQAEDVAVYYCQQSNEDPYTFGQGTKVEIK |
| 5.7 | 5.3 | 1.4 | 0.000973 | 0.8 | h22E11-VK4-1 × h22E11-5-IgG-HC (antibody, V domains shown, Humanized m22E11) VH: EVQLVESGGGLVQPGGSLRLSCAVSGFSLTSYGVHWVRQAPGKGLEWLVVIWSDGSTTYNSALKSRFTISKDNAKNSVYLQMNSLRAEDTAVYYCARQGGYRYDDAMDYWGQGTLVTVSS VL: DIVLTQSPDSLAVSLGERATINCKASQSVDYDGNSYVNWYQQKPGQPPKLLIYAASNLESGVPDRFSGSGSGTDFTLTISSLQAEDVAVYYCQQSNEDPYTFGQGTKVEIK |
